Results: article PMC12474171

What was measured:
[1] = molecular target: AAVpo.1 capsid (porcine adeno-associated virus po.1; VP1, VP2 and VP3) (adeno-associated virus AAVpo.1 (isolated from porcine tissues)); test: cryo-EM structure
[2] = molecular target: AAVpo.6 capsid (porcine adeno-associated virus po.6; VP1, VP2 and VP3) (adeno-associated virus AAVpo.6 (isolated from porcine tissues)); test: cryo-EM structure

Row | Substance | stoichiometry N [1] | stoichiometry N [2]
1 | AAVpo.1 capsid (porcine adeno-associated virus po.1; VP1, VP2 and VP3) (complex) | 60 | –
2 | AAVpo.6 capsid (porcine adeno-associated virus po.6; VP1, VP2 and VP3) (complex) | – | 60
